Assay: soluble on expression in E. coli; label from the status in PepcDB or PDB records

Sequence | soluble on expression in E. coli
MIGATGSGGTGGHNDVVRQGFICPFCMEDFGEYERLICHVENDHPEEDSSDLAGMFVSNVKGFFDKAKRGIQKLDAKKSIADLASNVETEFTETTEKLVERAPLPRIPKPLPPDEILPGTRRSKTREFLSTRELNINEVAVRTNMLIIRLDRLINGGPKDKDPVKRKEFEREVVPWLDDAEAVCCPLCASRFGLTRRRHHCRLCGRVLCHSCSKFLSFDTAKTLTSSSNPLGDTHIIVEEPNTVENEQELLQPEENGRRSFFSLSQKSMDKMKRAMAGAVQKVHSAATGEEIIAGALNEQDLSEHMRVCNLCLRDLHFRESQMDKKEPPEFVQQYDLMKVMIEEVKNLVPTYVRVVTSLKNGESVYSHKHGEELRSKCLEIQKSIDYVSKKIAEGANDKPNSAKEQQLRKNIRLYAVQALQGLIGQMESLPTAEECSNLIIKRKERRAKDFARVNRTVMKMSSSMPQLQEQHSHLNSTSSVSSFGGPSSIDDGWSAEDNDLVFEPSSIEDDTIQTDHPLYEQREQLRKFLFQASATGKLDEMDILERNLKEIEEEMMRLGLSC | not soluble
MTEHPRAHTAHLRTARLELTPLDPAADARHLHHAYGDEEVMRWWTRPACADPAETERYLTSCAAAPGARLWTIRAPDGTVPGMAGLLGGTDVPGLTWLLRRDSWGHGYATEAAAAVVGHALEDGGLDRVEAWIEAGNRRSLAVAARVGLTERARLAQHYPHRPGPHEMVVLGKARAEEPLTTLAVITELPVRDVAATLRLVEAALGARTAFAIGDPPEFAEAALTPWSAGPRFRLAAVPGPGPVEPVRLHLDAAGTADSLHRRAVDAGARVDGPPVRRPWGRSEFVITLPEGHELTVSAPV | soluble
AIKDAATKLFDPYEILGISTSASDRDIKSAYRKLSVKFHPDKLAKGLTPDEKSVMEETYVQITKAYESLTDELVRQNYLKYGHPDGPQSTSHG | not soluble
MKYLGLCTDLYELTMAQSYLYEGKTGTAVFSLFVRKLPEKRNFLISAGLETLVERIKNFKFGDEEIKYLKSLGIFKDDFLDYLKDFEFSGNVYAIPEGRIVFQNEPLVQVEAPIPEAQLLETLVINTIQFETMIASKAVRSYLVAKGKKLVDFGFRRAHGLEAGILAARASYIAGFDGTSNVEAGREFGIPVVGTMAHSYVMIFDKEEDAFRAFAKLYPKNAIFLIDTYDTIEAAKKVVDLAKEGVPVVGVRIDSGDIVKLSKEVRKILDENGLKNVRIIVSGGVDEYKIKEWFDRGAPIDAFGVGTKFITSADAPYFDIAYKLVEYEGKPKYKLSPGKKTFPYKRQVYRYYENGKMKYDETAKWESKREGEPLVELVMKNGKLIKELPSLKEIREVVMSELEKLPENYKDITKHYEYEVKILDWE | soluble
MSRQEVGYPFHLGRTLKLPQDPPGMAAIYLQSCSGGLFAGETLHLQLHAGPHTQVHVSTGAATVAHSMLEQPARQTVTLIAETGALLEYLPMATILFPQARLHSVVNVTLHPNARVMLCDAFCLHVPPGSAGLPGFYRADLHIRCPAGTLLAGDRLALTGADLQRRLPGVSAELQALATFMLVGQDLPVDELKRALRDALRVVPESYLGVSALPNDCGVSVRIMTADAVALRSALHLAWACARQQLTGIAPRVRRKLEHHHHHH | not soluble
MGSDKIHHHHHHMRILWINHRDPKHPQAGGAEVRLYEIARRLVKMGHEVMVLCEKVSRLPGEEVLEGIRIKRSGGRASIHLLAPLYVRKHGHEYDVIVDDIAHAVPWYSPLVTKTPVVAQIHHVHQDVVYIELPKPLAWIVSRAEKTIAKIYRRFIAVSQSTKKELAKRLGIDPDRIAVVPNGVDLEKYRPGSKDPRPTILWAGRIKMYKNLDHLLKAYRIVKQEIPDAQLIIIGTGDQEQKMRELAKKLEPRDVHFLGKMSEQEKIMWMQRAWIIVSTSMIEGWGITITEAAACKIPAIAYNVPGLRDSVKHMETGILVEPGNIEQLAKAIAWLLTDNSLRNKLSENAYNYAQSFSWDNTAITFLNILEDITRI | not soluble
MTQVRETVSFKAGDVILYPGVPGPRDRAYRVLEGLVRLEAVDEEGNALTLRLVRPGGFFGEEALFGQERIYFAEAATDVRLEPLPENPDPELLKDLAQHLSQGLAEAYRRIERLATQRLKNRMAAALLELSETPLAHEEEGKVVLKATHDELAAAVGSVRETVTKVIGELAREGYIRSGYGKIQLLDLKGLKELAESRGQGR | soluble
MMINRINLTDIRSFVLIARLGNFTKAAETLDVSRSHVSRQISSLEKQMGVTLLIRTTRTLRLTEAGKHFYHQCEQALHTIDQALLSAVDDVEKVQGEIKINCVGGYLGEVFLADIVNTFMQQYPDVSISLDFSSNRVDLIEEEFDIAFRMGSLEDSGFVAKKLLDIEMGTLASPKYLQQYGRPSHPKELQQHHCLTGSVRKWHFQSLVNKEHYDVSIKGNLQCKNGRVLVAGAIAGNGIIRVPLIYCQQELDDKKLVQVFEEWGIPTVDFSAIYHRDRYQPKRIRTFIDFVKQYSDSLFT | not soluble
MGHHHHHHSHMIKQRTLKRIVQATGVGLHTGKKVTLTLRPAPANTGVIYRRTDLNPPVDFPADAKSVRDTMLCTCLVNEHDVRISTVEHLNAALAGLGIDNIVIEVNAPEIPIMDGSAAPFVYLLLDAGIDELNCAKKFVRIKETVRVEDGDKWAEFKPYNGFSLDFTIDFNHPAIDSSNQRYAMNFSADAFMRQISRARTFGFMRDIEYLQSRGLCLGGSFDCAIVVDDYRVLNEDGLRFEDEFVRHKMLDAIGDLFMCGHNIIGAFTAYKSGHALNNKLLQAVLAKQEAWEYVTFQDDAELPLAFKAPSAVLA | not soluble
MEVLLTETFYTIGRSPRADIRIKSQFVSRIHAVLVRKSSDDVQAAYRIIDGDEDGQSSVNGLMINGKKVQEHIIQTGDEIVMGPQVSVRYEYRRRDQFGTMLEHHHHHH | not soluble
NVLLLDVTPLTLGIETFGGAFSPLIPRNTTVPVKKTEIFSTGVDGQAGVDIKVFQGERGLVRNNKLIGDLKLTGITPLPKGIPQIYVTFDIDADGIINVSAAEKSSGKQQSITVIPNSGLSEEEIAKLIEEANANRAQDNLIRQRLELISKADIMISDTENLFKRYEKLISSEKEYSNIVEDIKALRQAIKNFKANENDMSIDVNGIKKATDALQGRALKLFQSATKNQQNQGK | soluble
MSLAETWDMPLAYSGSNFHSVTAAEFGNCVTTGTGGEIEIVTHPSGSLFKGADIKRAVQTGQAPIGERLLSGHQNENALFGFDSVPFLATSFDDADKLWKAAKEPLSALLAEQNLTLLYSVPWPPQGLYFKNEVNAVADMKGIKFRSYNNATSRLAELTGMLPVTIEAAEISQAFATGVADSMISSGSTGYDRKVWESLNYFYEVDAWLPRNYVFVNSDVWSGVSDQNKNVIQACAGLAEYAGNWRSKEYTGFTLQGLRDGGMTVGPASDQLVGELKEIGVTMTSEWLEAAGDQGKAIVDAFKAEGHHHHHH | not soluble
MVCDFSQVRLRLADDGWRGTTTRREKDDAEDVEGKVTLRLRYTKTGAMRFLSHLEMIGLFTRAVGRSRIPIRFSRGFHPHPKFSFATALSVGVESWAEYLDMELFPGADPTDIGTRLNGALPEGVRIVEASVIPPGSPSLSVIMDKVRYRVTLPPEAAVGLPELAAAFLARESVPLRREKKGRVLEHHHHHH | not soluble
MQLEIKGKTHNVKFGTRFVAEMDKNHIAERQGFKFGAGLQSSVPFLIDHSVVTLAEVIYTGTITEPPRPSLNDIYDYIDEVEDIEKLFDDVLDELRQSNASKLFMAQVEKDLAEAKA | not soluble
MSLFRFMKYKLFIDFEFNILDDNKNKPKEYNGAELISIGGILVDNEFNTIDNYYSLVKPKYNKILSNKCKNLTKLNQLDINNAPNLLYVMDDFYKWFCKFDDVTIYNWGDFDITGLLTSFRVYKYTGKCLELFNMMIDIQPFISQHITYNNRILSKQISLLNMKKIFSVEGDIKHNSLSDAVDLMNVCKCFFFNSPKNIDILEELYNKLPALKTEGHHHHHH | soluble
MSLQKLAFSYVRFSSLKQRHGDSLKRQTDMVANWLLANPEYKLSGETSYQDLGKSGFSGAHLDNAFGRLLAAIENGAIPKGSAILIEQIDRAGRMEPMEMLPLLSRIVNAGVDLVTLDDGITYDRASVNSNHLFLLVAKVQQAHQYSDSLSRRLRAAYQTKRAKAAAGEGATRRMPLWIRDGKLRDDIAPFVTQVFEDYAAGIGERRILGRLKGQHPDFETISPSTFRRWLRNPVAVGRWNDIEDVWPAVVSKELWFRVQKRLTDGVKPKAASSKYLLSGLVKCARCGKNYCVGGQKGALTMLCVSRHRFGSGAGGCTNKRSIPYAVFDFIRSQTAHAALVRASQSQNLTASEKRQIEIDGELIELRKQSSHAAEGLVRYGMVKEITDVLDRVTDQIDRLEKERVMLQAVPAPATLDDMIDVENDLLDDDIVKLNALLQGVGYEMVVDDRTIVVCEASVFSTLQSQTYRYIGADRVTGTYKVTANDEVLHHLPNLDSKVQQDEYAEFLKKEARYESGELKRDEFRFNLETGEINREGHHHHHH | not soluble
GMSVNGIEVAKPFIAATVNVLSTMAGIQPQPGKPYVKKNNVAKGDVSAVIGITGHKNGSISVTFTKSCAIALVKGMLGDDIQDILQDTKDAVGEVTNMISGQARAGLAEMGMVFQGSTPSVIMGDGHTISHVTKSPIMAIPFLTNHGEFTVEFCFE | soluble
ASPNSPKDNTWIQAASLTWLMDMSSLLYQLISTRIPSFASPNGLHMREQTIDSNTGQIQIDNEHRLLRWDRRPPNDIFLNGFIPRVTNQNLSPVEDTHLLNYLRTNSPSIFVSTTRARYNNLGLEITPWTPHSANNNIIYRYEIFAPGGIDINASFSRNHNPFPNEDEITFPGGIRPEFIRSTYEYHNGEIVRIWINPNFINPSTLNDVSGPSNISKVFWHENHSEGNNMDSKGFILDLDYNQDFDMFAPNGEIPNNNLLNNNSLNVIQNSEYQIKNKKDRNIVVTLDSDYGGSPVESYKNFGFENQKWNIKYDSKKNAYKIYNRETPTLLLSWNSNSSNGEQVIRGYTESGSNNQYWTIEKNVNGFYKFRNLSDPSKILDLKDGNTLNKTPLVVSSENSSSSQEWLIEKTNYQTVKDGTYQVSSKLNENKVIEQISTNKVHIFSNSDKENQVWNLIYNPILKAYKIKSLKYPNYSLAWDSNNTRTIVAATGDYNDQYWLIERNEDNTYIIRNYENRKIVLDLSNGSTTDGNGLLGFEFHGGINQRWIIKPFSFNSIQDGIYQFMTVINQDLIADLTTNNYTIATKTNNYSSNQKWTVTYNDKKRAYKIRNLQHAHLSLAWDSNHSDKIFGATGDYDDQYWIPILQTDGSFIFRNYKNPNKIFGTNGQPINDIPLKAQDVTGQNNQKWYLRHLNSSNNFTGYFNISSKKNFNKIITMNSNKTQAVIFDNIGINNQSWKLKYNDNKNAYQIHILDNFLYFQGGHNIVATMRNVTNDDLRSYWYVEYNFNKDGFIIRNAFDTSYVLDVFQGNFANNTPIITYQNYLNDNQLWNFIPSLGVEPR | soluble
MGSSHHHHHHGKTIFVIVPTNEEQVAFLEALAKQDELNFDWQNPPTEPGQPVVILIPSDMVEWFLEMLKAKGIPFTVYVEEGGSENLYFQGGGGGGMDLDAFLSKNNKKSSKKVAKKSADEAALGGFGLETVPRVSTAAAKPITVANTGGSDASAAAGTASPLPAPEKTVAAPVVAVNLNFAGTTRSAKTWDAVKASQDSKRQEEVQAAAARKAKEEAEAAERKAAAGGDDDEVQLPESSPKETKVAKFVARGHRNATGAIGGGEGGAAAAASGRFAPHTQGLSLENLPTLEETFGNARKPSQSTASQSQSQQQPMSLPSQEQNGESAPAATPQESSSTPTSATAVAGSNKYVPPSKSSSTMESSTTLPSSPMPTRGSAGGSSAAAYRPPSGSSGVYKPPSMGAYRPPNASAGEAYKPPAPSAPSSGAGAYKPPTPGGASAGAYRPPASTGEAYKPPSSGGAGVYKPPSAGNSNAGAFKPSTAAGFSADTYKPPVAGSGSSAGAYKPPSAGGSAGVYKPPSKREA | soluble
MSLSVEAMIGQLNAEIKRLDRLIRSHLNQHPELKKDFDLLTSIKSVGYQLGLNMLVILRSHDFATAEQAAAFLGVVPVEKYSGTSVRGCPKLSKIGPPEIRAKLYLASLCGLRFNPLMKAMYERLCLRGKGKMCAIGALMRKLVHWCYGVLKTQKPFDVGYLSSYARSACKAAEGHHHHHH | soluble

— the DeepSol protein solubility set
